In patent publication US11278600B2, “Human alpha-galactosidase variants” (Codexis, Inc., priority 2014, dated 2022):

B1: 143 (protein)
chain: LDNGLARTPTMGWLHWERFMCNLDCQEEPDSCISEKLFMEMAELMVSEGWKDAGYEYLCIDDCWMAPQRDSEGRLQADPHRFPHGIRQLANYVHSKGLKLGIYADVGNKTCAGFPGSFGYYDIDAQTFADWGVDLLKFDGCYCDSLENLADGYKHMSLALNRTGRSIVYSCEWPLYMWPFQKPNYTEIRQYCNHWRNFADIDDSWKSIKSILDWTSFNQERIVDVAGPGGWNDPDMLVIGNFGLSWNQQVTQMALWAIMAAPLFMSNDLRHISPQAKALLQDKDVIAINQDPLGKQGYQLRQGDNFEVWERPLSGLAWAVAMINRQEIGGPRSYTIAVASLGKGVACNPACFITQLLPVKRKLGFYEWTSRLRSHINPTGTVLLQLENTMQMSKDLLL
modifications: Synthetic Polypeptide sequence of Variant No. 143 of mature Human GLA
B2: 147 (protein)
chain: LDNGLARTPTMGWLHWERFMCNLDCQEEPDSCISEKLFMEMAELMVSEGWKDAGYEYLCIDDCWMAPQRDSEGRLQADPQRFPHGIRHLANYVHSKGLKLGIYADVGNKTCAGFPGSFGYYDIDAQTFADWGVDLLKFDGCYCDSLENLADGYKHMSLALNRTGRSIVYSCEWPLYMWPFQKPNYTEIRQYCNHWRNFADIDDSWKSIKSILDWTSFNQERIVDVAGPGGWNDPDMLVIGNFGLSWNQQVTQMALWAIMAAPLFMSNDLRHISPQAKALLQDKDVIAINQDPLGKQGYQLRQGDNFEVWERPLSGLAWAVAMINRQEIGGPRSYTIAVASLGKGVACNPACFITQLLPVKRKLGFYEWTSRLRSHINPTGTVLLQLENTMQMSKDLLL
modifications: Synthetic Polypeptide sequence of Variant No. 147 of mature Human GLA
B3: 150 (protein)
chain: LDNGLARTPTMGWLHWERFMCNLDCQEEPDSCISEKLFMEMAELMVSEGWKDAGYEYLCIDDCWMAPQRDSEGRLQADPQRFPHGIRQLANYVHSKGLKLGIYADVGNKTCAGFPGSFGYYDIDAQTFADWGVDLLKFDGCYCDSLENLADGYKHMSLALNHTGRSIVYSCEWPLYMWPFQKPNYTEIRQYCNHWRNFADIDDSWKSIKSILDWTSFNQERIVDVAGPGGWNDPDMLVIGNFGLSWNQQVTQMALWAIMAAPLFMSNDLRHISPQAKALLQDKDVIAINQDPLGKQGYQLRQGDNFEVWERPLSGLAWAVAMINRQEIGGPRSYTIAVASLGKGVACNPACFITQLLPVKRKLGFYEWTSRLRSHINPTGTVLLQLENTMQMSKDLLL
modifications: Synthetic Polypeptide sequence of Variant No. 150 of mature Human GLA
B4: 145 (protein)
chain: LDNGLARTPTMGWLHWERFMCNLDCQEEPDSCISEKLFMEMAELMVSEGWKDAGYEYLCIDDCWMAPQRDSEGRLQADPQRFPHGIRALANYVHSKGLKLGIYADVGNKTCAGFPGSFGYYDIDAQTFADWGVDLLKFDGCYCDSLENLADGYKHMSLALNRTGRSIVYSCEWPLYMWPFQKPNYTEIRQYCNHWRNFADIDDSWKSIKSILDWTSFNQERIVDVAGPGGWNDPDMLVIGNFGLSWNQQVTQMALWAIMAAPLFMSNDLRHISPQAKALLQDKDVIAINQDPLGKQGYQLRQGDNFEVWERPLSGLAWAVAMINRQEIGGPRSYTIAVASLGKGVACNPACFITQLLPVKRKLGFYEWTSRLRSHINPTGTVLLQLENTMQMSKDLLL
modifications: Synthetic Polypeptide sequence of Variant No. 145 of mature Human GLA
B5: 149 (protein)
chain: LDNGLARTPTMGWLHWERFMCNLDCQEEPDSCISEKLFMEMAELMVSEGWKDAGYEYLCIDDCWMAPQRDSEGRLQADPQRFPHGIRSLANYVHSKGLKLGIYADVGNKTCAGFPGSFGYYDIDAQTFADWGVDLLKFDGCYCDSLENLADGYKHMSLALNRTGRSIVYSCEWPLYMWPFQKPNYTEIRQYCNHWRNFADIDDSWKSIKSILDWTSFNQERIVDVAGPGGWNDPDMLVIGNFGLSWNQQVTQMALWAIMAAPLFMSNDLRHISPQAKALLQDKDVIAINQDPLGKQGYQLRQGDNFEVWERPLSGLAWAVAMINRQEIGGPRSYTIAVASLGKGVACNPACFITQLLPVKRKLGFYEWTSRLRSHINPTGTVLLQLENTMQMSKDLLL
modifications: Synthetic Polypeptide sequence of Variant No. 149 of mature Human GLA
B6: 144 (protein)
chain: LDNGLARTPTMGWLHWERFMCNLDCQEEPDSCISEKLFMEMAELMVSEGWKDAGYEYLCIDDCWMAPQRDSEGRLQADPVRFPHGIRQLANYVHSKGLKLGIYADVGNKTCAGFPGSFGYYDIDAQTFADWGVDLLKFDGCYCDSLENLADGYKHMSLALNRTGRSIVYSCEWPLYMWPFQKPNYTEIRQYCNHWRNFADIDDSWKSIKSILDWTSFNQERIVDVAGPGGWNDPDMLVIGNFGLSWNQQVTQMALWAIMAAPLFMSNDLRHISPQAKALLQDKDVIAINQDPLGKQGYQLRQGDNFEVWERPLSGLAWAVAMINRQEIGGPRSYTIAVASLGKGVACNPACFITQLLPVKRKLGFYEWTSRLRSHINPTGTVLLQLENTMQMSKDLLL
modifications: Synthetic Polypeptide sequence of Variant No. 144 of mature Human GLA
B7: 146 (protein)
chain: LDNGLARTPTMGWLHWERFMCNLDCQEEPDSCISEKLFMEMAELMVSEGWKDAGYEYLCIDDCWMAPQRDSEGRLQADPQRFPHGIRFLANYVHSKGLKLGIYADVGNKTCAGFPGSFGYYDIDAQTFADWGVDLLKFDGCYCDSLENLADGYKHMSLALNRTGRSIVYSCEWPLYMWPFQKPNYTEIRQYCNHWRNFADIDDSWKSIKSILDWTSFNQERIVDVAGPGGWNDPDMLVIGNFGLSWNQQVTQMALWAIMAAPLFMSNDLRHISPQAKALLQDKDVIAINQDPLGKQGYQLRQGDNFEVWERPLSGLAWAVAMINRQEIGGPRSYTIAVASLGKGVACNPACFITQLLPVKRKLGFYEWTSRLRSHINPTGTVLLQLENTMQMSKDLLL
modifications: Synthetic Polypeptide sequence of Variant No. 146 of mature Human GLA
B8: 148 (protein)
chain: LDNGLARTPTMGWLHWERFMCNLDCQEEPDSCISEKLFMEMAELMVSEGWKDAGYEYLCIDDCWMAPQRDSEGRLQADPQRFPHGIRRLANYVHSKGLKLGIYADVGNKTCAGFPGSFGYYDIDAQTFADWGVDLLKFDGCYCDSLENLADGYKHMSLALNRTGRSIVYSCEWPLYMWPFQKPNYTEIRQYCNHWRNFADIDDSWKSIKSILDWTSFNQERIVDVAGPGGWNDPDMLVIGNFGLSWNQQVTQMALWAIMAAPLFMSNDLRHISPQAKALLQDKDVIAINQDPLGKQGYQLRQGDNFEVWERPLSGLAWAVAMINRQEIGGPRSYTIAVASLGKGVACNPACFITQLLPVKRKLGFYEWTSRLRSHINPTGTVLLQLENTMQMSKDLLL
modifications: Synthetic Polypeptide sequence of Variant No. 148 of mature Human GLA

Experiments:
Type in all cases: biochemical
[1] = HTP-analysis of supernatants pretreated with base (MUGal hydrolysis); settings: challenge at pH 7.1; activity of the variant/activity of WT GLA (SEQ ID NO: 5); yeast supernatant
Procedure, shortened: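 Supernatants from INVSc1 yeast expressing GLA variants (SD-Ura, 66-84 h, 30° C) were mixed with McIlvaine buffer pH 7.0-8.2 or 200 mM sodium bicarbonate pH 9.1-9.7 and held 1-18 h at 37° C. Residual activity was then measured on MUGal at pH 4.8/4.3, 37° C, 30-180 min, by fluorescence (Ex 355/Em 448 nm).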

[2] = HTP-analysis of supernatants pretreated with acid (MUGal hydrolysis); settings: challenge at pH 4.2; activity of the variant/activity of WT GLA (SEQ ID NO: 5); yeast supernatant
Procedure, shortened: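 MUGal hydrolysis was tracked by fluorescence (Ex 355 nm, Em 448 nm) after a 30-180 min reaction at 37° C. in pH 4.8 McIlvaine/citrate buffer, stopped with 1 M sodium carbonate. Beforehand, yeast (INVSc1) culture supernatants carrying GLA variants were held 1-3 h at 37° C. in acidic McIlvaine buffer, pH 3.3-4.3.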

[3] = HTP-analysis of yeast culture supernatants, no challenge (MUGal hydrolysis); settings: activity of the variant/activity of WT GLA (SEQ ID NO: 5), yeast supernatant
Procedure, shortened: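 Activity read as 4-methylumbelliferyl α-D-galactopyranoside hydrolysis: fluorescence (355/448 nm) after sodium carbonate stop, following 30-180 min at 37° C with 2 mM MUGal stock at pH 4.6–4.8. Enzyme source is unchallenged culture supernatant of INVSc1 yeast expressing GLA variants, grown 66-84 h at 30° C.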

Molecule	Relative Activity of GLA Variants After Challenge at pH 7.1 [1]	Relative Activity of GLA Variants After Challenge at pH 4.2 [2]	Relative Activity of GLA Variants After No Challenge (NC) [3]
B1	+ (+ = 0.5 to 1.5 relative activity over WT GLA (SEQ ID NO: 5))	+ (+ = 0.5 to 1.5 relative activity over WT GLA (SEQ ID NO: 5))	+ (+ = 0.5 to 1.5 relative activity over WT GLA (SEQ ID NO: 5))
B2	++ (++ = >1.5 to 2.5 relative activity over WT GLA (SEQ ID NO: 5))	++ (++ = >1.5 to 2.5 relative activity over WT GLA (SEQ ID NO: 5))	++ (++ = >1.5 to 2.5 relative activity over WT GLA (SEQ ID NO: 5))
B3	+ (+ = 0.5 to 1.5 relative activity over WT GLA (SEQ ID NO: 5))	+ (+ = 0.5 to 1.5 relative activity over WT GLA (SEQ ID NO: 5))	+ (+ = 0.5 to 1.5 relative activity over WT GLA (SEQ ID NO: 5))
B4	+ (+ = 0.5 to 1.5 relative activity over WT GLA (SEQ ID NO: 5))	+ (+ = 0.5 to 1.5 relative activity over WT GLA (SEQ ID NO: 5))	+ (+ = 0.5 to 1.5 relative activity over WT GLA (SEQ ID NO: 5))
B5	++ (++ = >1.5 to 2.5 relative activity over WT GLA (SEQ ID NO: 5))	+ (+ = 0.5 to 1.5 relative activity over WT GLA (SEQ ID NO: 5))	++ (++ = >1.5 to 2.5 relative activity over WT GLA (SEQ ID NO: 5))
B6	+ (+ = 0.5 to 1.5 relative activity over WT GLA (SEQ ID NO: 5))	++ (++ = >1.5 to 2.5 relative activity over WT GLA (SEQ ID NO: 5))	+ (+ = 0.5 to 1.5 relative activity over WT GLA (SEQ ID NO: 5))
B7	+ (+ = 0.5 to 1.5 relative activity over WT GLA (SEQ ID NO: 5))	+ (+ = 0.5 to 1.5 relative activity over WT GLA (SEQ ID NO: 5))	+ (+ = 0.5 to 1.5 relative activity over WT GLA (SEQ ID NO: 5))
B8	+ (+ = 0.5 to 1.5 relative activity over WT GLA (SEQ ID NO: 5))	++ (++ = >1.5 to 2.5 relative activity over WT GLA (SEQ ID NO: 5))	+ (+ = 0.5 to 1.5 relative activity over WT GLA (SEQ ID NO: 5))
